{"source": "patent US5817490A", "about": "“Enzymatic process for the manufacture of ascorbic acid 2-keto-L-gulonic acid and esters of 2-keto-L-gulonic acid” (Eastman Chemical Company, priority 1997, dated 1998)", "key": {"[1]": {"type": "physicochemical", "description": "HPLC sample standards were prepared by dissolving KLG, MeKLG, ascorbic acid (ASA), and butyl-KLG to the appropriate concentration in water. Samples of these standards were placed in filled and sealed vials, stored at room temperature, and analyzed periodically. The HPLC was calibrated on the area response for standards that were injected onto the HPLC as soon as possible after the preparation of the standards."}, "[2]": {"assay": "solubility of butyl-KLG in water", "type": "physicochemical", "description": "The recrystallized butyl-KLG of this example had satisfactory proton and carbon NMR spectra and gave the predicted molecular weight by field desorption mass spectrometry."}, "[3]": {"assay": "enzyme screen for hydrolysis/methanolysis of butyl-KLG (HPLC of products and remaining substrate)", "type": "biochemical", "parameters": "KLG formed / MeKLG formed / ASA formed / BuKLG (remaining substrate): unit: ppm", "conditions": "for levels of activity / conversion of butyl-KLG: MES", "description": "(§1) Initial enzyme screens were carried out as follows. Enzyme (typically 10 mg), aqueous buffer (typically 860 microliters (ul) or 550 ul), aqueous 0.2M CaCl2 (10 ul), methanol (typically 90 ul or 400 ul), and an aqueous solution of substrate (typically 90 ul of butyl-KLG at a typical concentration of 110,000 ppm) were added to a 2 ml polypropylene centrifuge tube. The resulting solution was vortexed briefly and placed on a shaker bath at 300 rpm at 38° C. (typically for 18 hours or more). After incubation, samples were centrifuged at 14,000 G's (14,000 times gravity) for 20 minutes to remove enzyme, sampled (300 ul), and diluted to one milliliter with distilled water. If not analyzed by HPLC within the day, samples were frozen prior to analysis.\nThe data were reported in terms of parts per million of KLG, MeKLG, ascorbic acid (ASA) and butyl-KLG. […] Samples labeled as \"no enzyme\" were controls within a given run. The controls contained substrate but no enzyme and thus represented experimental and HPLC background data."}, "[4]": {"assay": "enzyme screen for methanolysis of KLG", "type": "biochemical", "parameters": "unit not given here", "conditions": "Table 14: 38° C., 19 Hours, 8.6% Methanol-Water, 0.2M MES Buffer", "description": "as §1"}, "[5]": {"conditions": "Table 3: 38° C., 16 Hours, 38% Methanol-Water, 0.1M MES Buffer"}, "[6]": {"conditions": "Table 4: 38° C., 47.5 Hours, 38% Methanol-Water, 0.1M MES Buffer"}, "[7]": {"conditions": "Table 7: 38° C., 19 Hours, 8.6% Methanol-Water, 0.1M MES"}, "[8]": {"conditions": "Table 8: 38° C., 21 Hours, 8.6% Methanol-Water, 0.2 M MES"}, "[9]": {"conditions": "Table 9: 38° C., 19 Hours, 8.6% Methanol-Water, 0.2M MES Buffer"}, "[10]": {"conditions": "Table 10: 38° C., 19 Hours, 38% Methanol-Water, 0.2M MES Buffer"}, "[11]": {"conditions": "Table 11: 38° C., ca. 19 Hours, 8.6% Methanol-Water, 0.2M Pyridine/Pyridinium Hydrochloride"}, "[12]": {"conditions": "Table 12: 38° C., ca. 19 Hours, 38% Methanol-Water, 0.2M pyridine buffer, pH 4.7 to 5.1"}, "[13]": {"conditions": "Table 13: 38° C., 20 Hours, 8.6% Methanol-Water, pH 2.3, 0.2M Phosphate Buffer"}}, "note": "Where two headings read alike, the source gives them in different places.", "data": [{"molecule": "CCCCOC(=O)C(=O)[C@@H](O)[C@H](O)[C@@H](O)CO", "note": "[butyl-KLG, butyl 2-keto-L-gulonate]", "values": [{"measurement": "Amount Found", "setting": "[1]; 50 ppm standard, 0 minutes", "result": 50.6, "unit": "ppm"}, {"measurement": "Amount Found", "setting": "[1]; 50 ppm standard, 400 minutes", "result": 42.7, "unit": "ppm"}, {"measurement": "Amount Found", "setting": "[1]; 50 ppm standard, 715 minutes", "result": 38.2, "unit": "ppm"}, {"measurement": "Amount Found", "setting": "[1]; 100 ppm standard, 0 minutes", "result": 101, "unit": "ppm"}, {"measurement": "Amount Found", "setting": "[1]; 100 ppm standard, 400 minutes", "result": 100.1, "unit": "ppm"}, {"measurement": "Amount Found", "setting": "[1]; 100 ppm standard, 715 minutes", "result": 94.2, "unit": "ppm"}, {"measurement": "Amount Found", "setting": "[1]; 500 ppm standard, 0 minutes", "result": 506, "unit": "ppm"}, {"measurement": "Amount Found", "setting": "[1]; 500 ppm standard, 400 minutes", "result": 512, "unit": "ppm"}, {"measurement": "Amount Found", "setting": "[1]; 500 ppm standard, 715 minutes", "result": 499, "unit": "ppm"}, {"measurement": "solubility", "setting": "[2]", "result": "≥ 500", "unit": "mg/mL"}]}, {"molecule": "ChiroCLEC-BL (Dry): crystalline crosslinked enzyme, a crystalline form of Subtilisin (a protease) (Altus Biologics) (protein, UniProt P00780 106-379, looked up, crystalline cross-linked enzyme) Subtilisin Carlsberg: AQTVPYGIPLIKADKVQAQGFKGANVKVAVLDTGIQASHPDLNVVGGASFVAGEAYNTDGNGHGTHVAGTVAALDNTTGVLGVAPSVSLYAVKVLNSSGSGSYSGIVSGIEWATTNGMDVINMSLGGASGSTAMKQAVDNAYAKGVVVVAAAGNSGSSGNTNTIGYPAKYDSVIAVGAVDSNSNRASFSSVGAELEVMAPGAGVYSTYPTNTYATLNGTSMASPHVAGAAALILSKHPNLSASQVRNRLSSTATYLGSSFYYGKGLINVEAAAQ", "values": [{"measurement": "levels of activity / conversion of butyl-KLG", "setting": "[3]; Example 4: 38% methanol-water, pH 5 to 5.8", "result": "particularly high levels of activity"}, {"measurement": "levels of activity / conversion of butyl-KLG", "setting": "[3]; Example 8: 8.6% methanol-water, pH approximately 5.8 to 6.2", "result": "particularly high levels of activity"}, {"measurement": "ASA formed", "setting": "[3]; [5]", "result": 3, "unit": "ppm"}, {"measurement": "BuKLG (remaining substrate)", "setting": "[3]; [5]", "result": 5123, "unit": "ppm"}, {"measurement": "KLG formed", "setting": "[3]; [5]", "result": 194, "unit": "ppm"}, {"measurement": "MeKLG formed", "setting": "[3]; [5]", "result": 642, "unit": "ppm"}, {"measurement": "ASA formed", "setting": "[3]; [6]", "result": 54, "unit": "ppm"}, {"measurement": "BuKLG (remaining substrate)", "setting": "[3]; [6]", "result": 634, "unit": "ppm"}, {"measurement": "KLG formed", "setting": "[3]; [6]", "result": 3744, "unit": "ppm"}, {"measurement": "MeKLG formed", "setting": "[3]; [6]", "result": 1724, "unit": "ppm"}, {"measurement": "ASA formed", "setting": "[3]; [7]", "result": 135}, {"measurement": "BuKLG (remaining substrate)", "setting": "[3]; [7]", "result": 4051}, {"measurement": "KLG formed", "setting": "[3]; [7]", "result": 2860}, {"measurement": "MeKLG formed", "setting": "[3]; [7]", "result": 1233}, {"measurement": "ASA formed", "setting": "[3]; [8]", "result": 6, "unit": "ppm"}, {"measurement": "BuKLG (remaining substrate)", "setting": "[3]; [8]", "result": 1376, "unit": "ppm"}, {"measurement": "KLG formed", "setting": "[3]; [8]", "result": 4293, "unit": "ppm"}, {"measurement": "MeKLG formed", "setting": "[3]; [8]", "result": 1282, "unit": "ppm"}, {"measurement": "ASA formed", "setting": "[3]; [9]", "result": 215, "unit": "ppm"}, {"measurement": "BuKLG (remaining substrate)", "setting": "[3]; [9]", "result": 3045, "unit": "ppm"}, {"measurement": "KLG formed", "setting": "[3]; [9]", "result": 3485, "unit": "ppm"}, {"measurement": "MeKLG formed", "setting": "[3]; [9]", "result": 1235, "unit": "ppm"}, {"measurement": "ASA formed", "setting": "[3]; [10]", "result": 102, "unit": "ppm"}, {"measurement": "BuKLG (remaining substrate)", "setting": "[3]; [10]", "result": 5572, "unit": "ppm"}, {"measurement": "KLG formed", "setting": "[3]; [10]", "result": 1261, "unit": "ppm"}, {"measurement": "MeKLG formed", "setting": "[3]; [10]", "result": 1693, "unit": "ppm"}, {"measurement": "ASA formed", "setting": "[3]; [11]", "result": 67, "unit": "ppm"}, {"measurement": "BuKLG (remaining substrate)", "setting": "[3]; [11]", "result": 5603, "unit": "ppm"}, {"measurement": "KLG formed", "setting": "[3]; [11]", "result": 987, "unit": "ppm"}, {"measurement": "MeKLG formed", "setting": "[3]; [11]", "result": 1360, "unit": "ppm"}, {"measurement": "ASA formed", "setting": "[3]; [12]", "result": 7}, {"measurement": "BuKLG (remaining substrate)", "setting": "[3]; [12]", "result": 10950}, {"measurement": "KLG formed", "setting": "[3]; [12]", "result": 97}, {"measurement": "MeKLG formed", "setting": "[3]; [12]", "result": 447}, {"measurement": "ASA formed", "setting": "[3]; [13]", "result": 0}, {"measurement": "BuKLG (remaining substrate)", "setting": "[3]; [13]", "result": 10580}, {"measurement": "KLG formed", "setting": "[3]; [13]", "result": 387}, {"measurement": "MeKLG formed", "setting": "[3]; [13]", "result": 0}, {"measurement": "ASA formed", "setting": "[4]", "result": 0}, {"measurement": "BuKLG", "setting": "[4]", "result": 0}, {"measurement": "KLG (remaining substrate)", "setting": "[4]", "result": 3270}, {"measurement": "MeKLG formed", "setting": "[4]", "result": 0}]}]}
